# B1: Variant No. 264 (protein)
# chain: SAAIAQEGAAPAAMLHPEKWPRPATQRLIDPAVEKRVDALLKQLSVEEKVGQVIQGDIGTITPEDLRKYPLGSILAGGDSGPNGDDRAPPKEWLDLADAFYRVSLEKRPGHTPIPVLFGIDAVHGHGNIGSATIFPHNIALGMTRDPELLRRIGEVTAEEMAATGIDWTFAPALSVVRDDRWGRTYEGFSEDPEIVASYSAAIVEGVQGKYGSKDFMAPGRAVACAKHFLADGGTDQGRDQGDARISEDELIRIHNAGYPPAIDAGVLTVMASFSSWQGIKHHGHKQLLTDVLKGQMGFNGFIVGDWNAHDQVPGCTKFNCPTSLIAGLDMYMAADSWKQLYENTLAQVKDGTIPMARLDDAVRRILRVKVLAGLFEKPAPKDRPGLPGLETLGSPEHRAVGREAVRKSLVLLKNDKGTLPLSPKARVLVAGDGADNIGKQSGGWTISWQGTGNRNDEFPGATSILGGIRDAVADAGGSVEFDVAGQYKTKPDVAIVVFGEEPYAEFRGDVETLEYQPDQKQDLTLLKKLKDQGIPVVAVFLSGRPMWVNPELNASDAFVAAWLPGTEGGGVADVLFTDKAGKVQHDFAGKLSYSWPRTAAQTTVNRGDADYNPLFAYGYGLTYKDKSKVGTLPEESGVPAEARQN
# Legend:
# [1] = High throughput cellobiose assay: fold improvement in cellobiase activity of CelA variants over a control enzyme (Tables 2A-2D, 3, 5, 6, 7); format: biochemical; settings: assay of Example 7
# [2] = Activity profile at different temperatures and pH using cellobiose (10 g/L) as substrate; format: biochemical
# Description: β-glucosidase activity was also determined using a cellobiose assay, which used cellobiose as substrate. In a total volume of 100 μL, 25 μL clear media supernatant containing CelA enzyme was added to 10 g/L cellobiose (Fluka Cat. No. 22150, Sigma-Aldrich, Inc., St. Louis, Mo.) in 100 mM sodium phosphate buffer (pH 6-7) or sodium acetate buffer (pH 5-5.5). The reaction was incubated at 45-70° C. for an appropriate time (25 minutes to overnight depending on the enzyme concentration) while shaking. Glucose production was determined using an enzymatic glucose assay (K-GLUC, Megazyme, Ireland). 10 μl of each reaction was added to 190 μl GOPOD reagent (supplied as part of the K-GLUC assay kit). The reaction was incubated at 45° C. for 20 minutes and the absorbance of the solution was measured at 510 nm. The GOPOD reagent contains 50 mM Potassium phosphate buffer pH7.4, 0.011M p-hydroxybenzoic acid, 0.008% w/v sodium azide, glucose oxidase (>12,000 U/L), peroxidase (>650 U/L) and 80 mg/L 4-aminoantipyrine. The glucose oxidase enzyme in the reagent reacts with any glucose present in the sample and produces hydrogen peroxide which then reacts with the 4-aminoantipyrine to produce a quinoneimine dye in quantities proportionate with the amount of glucose present and can be measured spectrophotometrically at 510 nm. Detectable β-glucosidase activity was observed under high throughput screening conditions (i.e., pH 7, 50° C.).
# The native CelA activity profile was investigated at different temperatures (40-55° C.) and pH (5.0-8.0) using cellobiose (10 g/L) as a substrate. The experimental and analytical procedures are described in Example 5.
# The activity profiles for Variant Nos. 264, 366, 391, 463, and 529 were determined at different temperatures and pH using cellobiose (10 g/L) as a substrate. The experimental and analytical procedures are described in Example 5, incubating the variant with cellobiose at temperatures in the range of 45-80. The results are depicted in FIGS. 7-11. […] The temperature and pH profile for this variant is depicted in FIG. 7. […] The temperature and pH profile for this variant is depicted in FIG. 8. […] The temperature and pH profile for this variant is depicted in FIG. 9. […] (with the pH 6 optimum determined by extrapolation). The temperature and pH profile for this variant is depicted in FIG. 10. […] The temperature and pH profile for this variant is depicted in FIG. 11.
molecule,measurement,setting,value
B1,"activity (e.g., thermoactivity) over the wildtype A. irakense β-glucosidase",[1],improved activity
same,pH of optimum activity,[2],6 pH
same,temperature of optimum activity,[2],58 °C
